Assay [1] concerns the target GST-fusion peptide of the wild-type IQ motif of T. cinnabarinus L-VGCC (Tetranychus cinnabarinus). Briefly: pull-down.
The target of assay [2] is GST-fusion peptide of the near-end C-terminal motif (CT1) of T. cinnabarinus L-VGCC (Tetranychus cinnabarinus). Nature of the assay: pull-down.
Assay [3] addresses GST-fusion peptide of the wild-type IQ motif of T. cinnabarinus L-VGCC (Tetranychus cinnabarinus). Briefly: pull-down. The source holds these as a separate data set.
The target of assay [4] is GST-fusion peptide CT1B (PreIQ and IQ) of T. cinnabarinus L-VGCC (Tetranychus cinnabarinus). Briefly: pull-down.
Assay [5] has as its target GST-fusion peptide of the PreIQ motif of T. cinnabarinus L-VGCC (Tetranychus cinnabarinus). Nature of the assay: pull-down.
The target in assay [6] is GST-fusion peptide of the N-terminal (NT) motif of T. cinnabarinus L-type voltage-gated Ca2+ channel (Tetranychus cinnabarinus). Briefly: pull-down.
Assay [7] concerns the target L-type voltage-gated Ca2+ channel (TcL-VGCC) (Tetranychus cinnabarinus, UniProt A0A3Q9D0J7). Nature of the assay: voltage-clamp whole-cell current recording in Xenopus oocytes. Format: cell-based.

Like-named read-outs stand apart in the source and are kept apart here. Where only a bound is given, the exact number is not on record here.

For the molecule “Tetranychus cinnabarinus calmodulin 1 (TcCaM1), recombinant, purified (natural protein)”, the Kd in assay [1] was 230 nM; in assay [2] it was 931 nM; in assay [3], 430 nM; in assay [5], 85 nM; in assay [6], 112 nM. The molecule also had a Kd, two-site model, first printed value in assay [2] of 2250 nM. In assay [2], this molecule registered a Kd, two-site model, second printed value of 24 nM. The stoichiometry N in assay [2] and in assay [4] was above 1 each time. Besides, in assay [3], the percent increase of CaM1 binding in the presence of scoparone (5.54 μM) amounted to 47.1%.

Molecule `COc1cc2ccc(=O)oc2cc1OC` [compound 1, scoparone] registered a concentration giving a half-maximal response (EC50) in assay [7] of 5540 nM. In other words, the single-digit micromolar range.

A word on the Kd: it is the concentration at which binding is half-saturated. High values mean weaker binding, low ones tighter binding. A word on the stoichiometry N: it is a count of units in the complex or per binding partner. For orientation: EC50 means the concentration at which the effect is half-maximal. Low readings indicate higher potency in that assay, high ones lower potency in that assay.
